Data taken from paper PMC4837482, “The complex binding mode of the peptide hormone H2 relaxin to its receptor RXFP1” (Nature Communications, 2016).
Residue numbers refer to the chain shown, from its start. Names may count otherwise. “Also recorded” adds a separate entry of the source. Blank lines part the entries; values can stand above or below the molecule they belong to. Where no end group is shown, it is not given here.

Tests used:
RXFP1 [1] = biological target: T1, RXFP1 (Homo sapiens, UniProt Q9HBX9); conditions: versus H2 relaxin; cited from earlier work
T1 construct: transiently transfected human embryonic kidney (HEK) 293T cells expressing full-length RXFP1 and mutants; expressed in transfected cells; host or cells: HEK293T
T1 sequence (Q9HBX9 1-757): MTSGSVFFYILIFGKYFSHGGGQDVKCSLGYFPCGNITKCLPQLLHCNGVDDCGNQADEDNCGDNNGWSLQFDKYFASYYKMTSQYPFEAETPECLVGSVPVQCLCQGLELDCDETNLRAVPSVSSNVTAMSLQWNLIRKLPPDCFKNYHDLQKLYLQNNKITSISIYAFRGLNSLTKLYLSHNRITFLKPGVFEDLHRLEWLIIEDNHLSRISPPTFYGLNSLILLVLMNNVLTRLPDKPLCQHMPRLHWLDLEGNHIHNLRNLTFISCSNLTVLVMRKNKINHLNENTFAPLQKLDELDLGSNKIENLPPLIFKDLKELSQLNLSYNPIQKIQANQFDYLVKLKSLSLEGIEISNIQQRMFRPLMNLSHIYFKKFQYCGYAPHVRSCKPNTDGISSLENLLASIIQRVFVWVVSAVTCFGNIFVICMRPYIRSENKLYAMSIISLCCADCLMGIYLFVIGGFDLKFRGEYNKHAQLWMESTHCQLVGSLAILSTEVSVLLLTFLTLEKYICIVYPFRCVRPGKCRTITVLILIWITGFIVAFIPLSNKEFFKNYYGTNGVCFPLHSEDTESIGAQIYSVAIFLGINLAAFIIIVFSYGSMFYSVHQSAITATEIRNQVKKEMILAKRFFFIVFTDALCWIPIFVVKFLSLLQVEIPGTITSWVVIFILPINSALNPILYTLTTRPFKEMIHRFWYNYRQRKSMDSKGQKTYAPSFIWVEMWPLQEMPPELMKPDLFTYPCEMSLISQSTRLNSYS

RXFP1 [2] = biological target: T1, RXFP1; conditions: versus H2 relaxin; cited from earlier work; remark: listed apart in the source
RXFP1(1–72) = biological target: T2, RXFP1(1–72) (Homo sapiens, UniProt Q9HBX9); assay: NMR competition titration against the RXFP1(1–72)/Mn2+-DTPA-(A)-H2 complex; format: binding; conditions: 50 μM peptide added to 50 μM 15N-RXFP1(1–72) with 0.2 μM Mn2+-DTPA-(A)-H2; pH 6.8, 25 °C
T2 construct: GB1 (N, cleaved yes); made in house; host or cells: E. coli BL21 (DE3) trxB
T2 sequence (Q9HBX9 23-94 limits assumed): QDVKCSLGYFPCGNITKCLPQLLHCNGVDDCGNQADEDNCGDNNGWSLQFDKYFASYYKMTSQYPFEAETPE
Protocol: All RXFP1(1–72) protein samples for nuclear magnetic resonance (NMR) experiments were prepared from lyophilized protein in 50 mM imidazole, with 10 mM CaCl2 at pH 6.8. Recombinant human gene-2 H2 relaxin peptide was kindly provided by Corthera. EL1^(475–486)/EL2-GB1 samples were prepared as described above. Titrant and titrand were dialyzed in the same buffer in the same vessel. All NMR experiments were routinely collected at 25 °C on a 700-MHz Bruker Avance HDIII spectrometer equipped with triple resonance cryoprobe. […] Backbone assignments were made from 3D HNCACB, HNCOCACB, HNCO and HNCACO experiments. Spectra were processed using NMRPipe (ref. [43]) and typically Fourier-transformed after applying Lorentz-to-Gauss window functions in the direct dimension and cosine bells in the indirect dimensions. NMR data were analysed using SPARKY (Goddard, T.D. and Kneller, D.G., University of California, San Francisco). Assignments of the mutant RXFP1(1–72) proteins were determined from the assignments of wild-type RXFP1(1–72).
^15N{^1H}-NOE experiments[45] (2,048 × 256 data points) were acquired with a saturation pulse of 4 s and an additional relaxation delay of 5 s. Sample conditions were 150 μM RXFP(1–72) or mutants either without or with 450 μM H2 relaxin. Binding to Mn^2+-DTPA-(A)-H2 to RXFP1(1–72) and mutants was monitored by recording 2D ^1H-^15N HSQC (2,048 × 256 data points) for 0.2 μM Mn^2+-DTPA-(A)-H2 against 50 μM RXFP1(1–72). H2 relaxin and its truncates such as A-chain (9–24), H2/I5 chimera and Phe23Ala A-chain mutant H2 were titrated into a complex of 50 μM RXFP1(1–72) and 0.2 μM Mn^2+-DTPA-(A)-H2 with increasing concentrations ranging from 5 to 50 μM.

[3] = biological target: T3, Europium-labelled H2 relaxin (human, UniProt P04090 162-185; P04090 25-53, DTPA cage loaded with Eu^3+ on the N-terminus of the A-chain); assay: europium-labelled ligand saturation binding on cells (time-resolved fluorescence); HEK293T cells transiently transfected with receptor, 96-well plates; increasing Eu-H2 relaxin (maximum 15 nM) with or without 1 μM unlabelled H2 relaxin, 1 h, room temperature; 20 mM HEPES pH 7.5, 1.5 mM CaCl2, 50 mM NaCl, 0.01% NaN3, 1% BSA; one-site fit; conditions: one partner purified
T3 construct: A chain of human gene-2 (H2) relaxin; numbers count on: the A chain; B chain of human gene-2 (H2) relaxin; numbers count on: the B chain; also called Eu-H2 relaxin; Eu-H2

Molecule: A-chain (9–24) H2: N-terminally truncated A-chain (9–24) H2 peptide (KCCHVGCTKRSLARFC; ends and bridges not checked; cysteine pairing not given here; UniProt P04090 170-185, looked up, fragment)
potency for RXFP1 (RXFP1 [1]): decreased
affinity for RXFP1 (RXFP1 [2]): decreased
competition with Mn2+-DTPA-(A)-H2 for RXFP1(1–72) (peak intensities, chemical shifts) (RXFP1(1–72)): the gain in peak intensity was not as pronounced as that recorded with native H2 peptide

Molecule: H2-(B5–29): B-chain truncate of H2 relaxin (EEVIKLCGRELVRAQIAICGMSTWS; ends and bridges not checked; cysteine pairing not given here; UniProt P04090 29-53, looked up, fragment)
potency at RXFP1 (RXFP1 [1]): retain their native affinity and potency
affinity at RXFP1 (RXFP1 [2]): retain their native affinity and potency
competition with Mn2+-DTPA-(A)-H2 for RXFP1(1–72) (peak intensities, chemical shifts) (RXFP1(1–72)): did not detect any significant difference in binding

Molecule: H2/I5-2: A-chain H2 chimeric analogue; His12 and Val13 (H2) replaced by Thr12 and Asp13 (INSL5) (QLYSALANKCCTDGCTKRSLARFC; ends and bridges not checked; cysteine pairing not given here; UniProt P04090 162-185, looked up, variant H12T V13D)
activation of RXFP1 (RXFP1 [1]): retains the ability to activate
binding affinity for RXFP1 (RXFP1 [2]): modest loss of binding
competition with Mn2+-DTPA-(A)-H2 for RXFP1(1–72) (peak intensities, chemical shifts) (RXFP1(1–72)): no changes were observed in peak intensities or chemical shifts; also recorded: could not bind

competition with Mn2+-DTPA-(A)-H2 for RXFP1(1–72) (peak intensities, chemical shifts) (RXFP1(1–72)): did not compete
Molecule: F23A: H2 relaxin mutant F23A; destabilizes the secondary structure of the A-chain (QLYSALANKCCHVGCTKRSLARAC; ends and bridges not checked; cysteine pairing not given here; UniProt P04090 162-185, looked up, variant F23A)
activation of RXFP1 (RXFP1 [1]): significant loss
binding affinity for RXFP1 (RXFP1 [2]): significant loss

Molecule: H2-(B1–25): B-chain truncate of H2 relaxin (DSWMEEVIKLCGRELVRAQIAICGM; ends and bridges not checked; cysteine pairing not given here; UniProt P04090 25-49, looked up, fragment)
potency at RXFP1 (RXFP1 [1]): retain their native affinity and potency
affinity at RXFP1 (RXFP1 [2]): retain their native affinity and potency
competition with Mn2+-DTPA-(A)-H2 for RXFP1(1–72) (peak intensities, chemical shifts) (RXFP1(1–72)): did not detect any significant difference in binding

Kd [3]: > 20 nM
B1: RXFP1 G41A/D42A, full length (receptor)
chain: QDVKCSLGYFPCGNITKCLPQLLHCNGVDDCGNQADEDNCAANNGWSLQFDKYFASYYKMTSQYPFEAETPECLVGSVPVQCLCQGLELDCDETNLRAVPSVSSNVTAMSLQWNLIRKLPPDCFKNYHDLQKLYLQNNKITSISIYAFRGLNSLTKLYLSHNRITFLKPGVFEDLHRLEWLIIEDNHLSRISPPTFYGLNSLILLVLMNNVLTRLPDKPLCQHMPRLHWLDLEGNHIHNLRNLTFISCSNLTVLVMRKNKINHLNENTFAPLQKLDELDLGSNKIENLPPLIFKDLKELSQLNLSYNPIQKIQANQFDYLVKLKSLSLEGIEISNIQQRMFRPLMNLSHIYFKKFQYCGYAPHVRSCKPNTDGISSLENLLASIIQRVFVWVVSAVTCFGNIFVICMRPYIRSENKLYAMSIISLCCADCLMGIYLFVIGGFDLKFRGEYNKHAQLWMESTHCQLVGSLAILSTEVSVLLLTFLTLEKYICIVYPFRCVRPGKCRTITVLILIWITGFIVAFIPLSNKEFFKNYYGTNGVCFPLHSEDTESIGAQIYSVAIFLGINLAAFIIIVFSYGSMFYSVHQSAITATEIRNQVKKEMILAKRFFFIVFTDALCWIPIFVVKFLSLLQVEIPGTITSWVVIFILPINSALNPILYTLTTRPFKEMIHRFWYNYRQRKSMDSKGQKTYAPSFIWVEMWPLQEMPPELMKPDLFTYPCEMSLISQSTRLNSYS

Kd [3]: > 20 nM
B2: RXFP1 G45A/W46A, full length (receptor)
chain: B1 chain with A41G, A42D, G45A, W46A
